# Article PMC10888690
# Target: SmCAMTA2, split-YFP fusion for BiFC (Solanum melongena (eggplant))
substance,measurement,value
"SmERF1, construct for BiFC (natural protein)",LUC/REN ratio of the SmCBF2 promoter-LUC reporter in N. benthamiana leaves when SmERF1-62-SK and SmCAMTA2-62-SK were co-present,2 fold
